One experiment addresses T1, MCP-1 receptor B (CCR2B) (Homo sapiens, UniProt P41597).
T1 construct: expressed in transfected cells; host or cells: CHO-K1 clone 7 (CHO-CCR2B), membrane fragments
T1 sequence (P41597 1-360 isoform P41597-2): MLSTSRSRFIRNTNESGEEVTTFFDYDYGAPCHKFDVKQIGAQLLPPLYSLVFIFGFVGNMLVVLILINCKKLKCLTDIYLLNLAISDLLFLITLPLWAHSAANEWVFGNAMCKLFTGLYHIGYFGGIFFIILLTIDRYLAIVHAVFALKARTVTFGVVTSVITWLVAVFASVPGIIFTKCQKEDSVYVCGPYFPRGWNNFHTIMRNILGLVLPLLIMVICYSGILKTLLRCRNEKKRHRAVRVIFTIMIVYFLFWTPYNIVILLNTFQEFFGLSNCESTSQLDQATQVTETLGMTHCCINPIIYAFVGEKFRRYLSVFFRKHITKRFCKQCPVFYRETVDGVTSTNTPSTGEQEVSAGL
As to the kind of experiment: hMCP-1 receptor binding assay (125I-MCP-1, CHO-CCR2B cell membranes). Particulars: CHO-CCR2B membrane fragments. An excerpt: The MCP-1 receptor B (CCR2B) cDNA was cloned by PCR from THP-1 cell RNA using suitable oligonucleotide primers based on the published MCP-1 receptor sequences (Charo et al., 1994, Proc. Natl. Acad. Sci. USA, 91, 2752). The resulting PCR products were cloned into vector PCR-II™ (In Vitrogen, San Diego, Calif.). Error free CCR2B cDNA was subcloned as a Hind III-Not I fragment into the eukaryotic expression vector pCNA3 (In Vitrogen) to generate pCDNA3/CC-CKR2A and pCDNA3/CCR2B respectively.
Linearised pCDNA3/CCR2B DNA was transfected into CHO-K1 cells by calcium phosphate precipitation (Wigler et al., 1979, Cell, 16, 777). Transfected cells were selected by the addition of Geneticin Sulphate (G418, Gibco BRL) at 1 mg/ml, 24 hours after the cells had been transfected. Preparation of RNA and Northern blotting were carried out as described previously (Needham et al., 1995, Prot. Express. Purific., 6, 134). CHO-K1 clone 7 (CHO-CCR2B) was identified as the highest MCP-1 receptor B expresser.
CHO-CCR2B cells were grown in DMEM supplemented with 10% foetal calf serum, 2 mM glutamine, 1× Non-Essential Amino Acids, 1× Hypoxanthine and Thymidine Supplement and Penicillin-Streptomycin (at 50 μg streptomycin/ml, Gibco BRL). Membrane fragments were prepared using cell lysis/differential centrifugation methods as described previously (Siciliano et al., 1990, J. Biol. Chem, 265, 19658). […]

The subject of experiment [1] is THP-1 cells. Briefly: hMCP-1 mediated chemotaxis of THP-1 cells. Particulars: 2 h at 37° C. The class given is cell-based, human. As to the method:
In vitro chemotaxis assays were performed using the human monocytic cell line THP-1. Cell migration through polycarbonate membranes was measured by enumerating those passing through either directly by Coulter counting or indirectly by use of a colourimetric viability assay measuring the cleavage of a tetrazolium salt by the mitochondrial respiratory chain (Scudiero D. A. et al. 1988, Cancer Res., 48, 4827-4833). […]
In an alternative form of the above assay, fluorescently tagged cells can be used in order to assist in end point detection. […] At the end of the incubation, cells are washed off the upper face of the filter with phosphate buffered saline, the filter removed from the plate and the number of cells attracted to either the underside of the filter or the lower well estimated by reading fluorescence at 485 nm excitation, 538 nm emission wavelengths (fmax, Molecular Devices). The data was input into a spreadsheet, corrected for any random migration in the absence of chemoattractant and the average fluorescence values, standard error of the mean, percentage inhibition and IC50 of compounds under test and significance tests can be calculated. […]

Experiment [2] concerns THP-1 cells. As to the kind of experiment: MCP-1 mediated calcium flux in THP-1 cells. In kind it is cell-based, human. Particulars: stimulation of THP-1 cells with hMCP-1, FURA-2, approximate; read-out: EC50 of the rise in [Ca2+]i. As to the method:
The human monocytic cell line THP-1 was grown in a synthetic cell structure medium RPMI 1640 supplemented with 10% foetal calf serum, 6 mM glutamine and Penicillin-Streptomycin (at 50 μg streptomycin/ml, Gibco BRL). THP-1 cells were washed in HBSS (lacking Ca^2+ and Mg^2+)+1 mg/ml BSA and resuspended in the same buffer at a density of 3×10^6 cells/ml. The cells were then loaded with […] FURA-2/AM for 30 min at 37° C., washed twice in HBSS, and resuspended at 1×10^6 cells/ml. THP-1 cell suspension (0.9 ml) was added to a 5 ml disposable cuvette containing a magnetic stirrer bar and 2.1 ml of prewarmed (37° C.) HBSS containing 1 mg/ml BSA, 1 mM MgCl2 and 2 mM CaCl2. The cuvette was placed in a fluorescence spectrophotometer (Perkin Elmer, Norwalk, Conn.) and preincubated for 4 min at 37° C. with stirring. Fluorescence was recorded over 70 sec and cells were stimulated by addition of hMCP-1 to the cuvette after 10 sec. [Ca^2+]i was measured by excitation at 340 nm and 380 nm alternatively and subsequent measurement of the intensity of the fluorescence emission at 510 nm. […] Rmax is the maximal fluorescence ratio determined after addition of […] Ionomycin, Rmin is the minimal ratio determined by the subsequent addition of a Ca^2+ free solution containing 5 mM EGTA, and Sf2/Sb2 is the ratio of fluorescence value at 380 nm excitation determined at Rmin and Rmax, respectively. […]
(In general: Calcium flux is commonly read through the fluorescence of an indicator in the cells.)

As a reminder, the IC50 is the concentration that gives 50% inhibition. Higher therefore signals a need for much substance. The term Kd denotes a measure of binding affinity in units of concentration. Higher therefore signals a looser complex. The EC50 is the concentration giving half of the maximal effect. In the experiment with MCP-1 receptor B (CCR2B) (cold competition of unlabeled MCP-1 with 100 pM 125I-labeled MCP-1), “MCP-1: Human Monocyte Chemoattractant Protein-1, a C—C chemokine; ligand of the CCR2 receptor” displayed an IC50 of 0.11 nM. In addition, the Kd with MCP-1 receptor B (CCR2B) (equilibrium binding, room temperature) is 0.12 nM. The “concentration of maximal cell migration (biphasic response)” value in the experiment with THP-1 cells [1] was 0.5-1.0 nm. Besides, the EC50 with THP-1 cells [2] is roughly 2 nM.

For the origin of these results see US6984657B1, “Indole derivatives as MCP-1 receptor antagonists” (AstraZeneca AB, priority 2000, dated 2006).
